Laboratory results reported in patent US20180305451A1.

Assays:
[1] = molecular target: putative molecular counterpart of HIDE1 on T cells; test: flow cytometry on H9 human T cell line, live singlets; negative control PE tetramer at 3 µg/well (60 µg/ml)
[2] = molecular target: putative molecular counterpart of HIDE1 on T cells; test: FACS, tetramer on CD4+ T cells activated for 72 h
[3] = molecular target: putative molecular counterpart of HIDE1 on T cells; test: flow cytometry on U937 human myeloid cell line, live singlets; PE tetramer at 3 µg/well (60 µg/ml); the text calls this no binding; Tetramer-EGFR in the same box reads 79.6
[4] = molecular target: putative molecular counterpart of HIDE1 on T cells; test: flow cytometry on H9 human T cell line, live singlets; PE tetramer at 3 µg/well (60 µg/ml)

| Substance | Geometric Mean (B2-A) [1] | fold increase in the Geo Mean compared to EGFR negative control [2] | Geometric Mean (B2-A) [3] | Geometric Mean (B2-A) [4] |
| --- | --- | --- | --- | --- |
| Tetramer-EGFR (from UniProt P00533) | 82.1 |  |  |  |
| HIDE1 tetramer (from UniProt A8MVS5 20-117) |  | 3 fold | 86.2 | 731 |
